Experimental data: the supplement of paper PMC10126150
± gives the standard deviation of the averaged measurements.

Tested on: ATP
Assay: switch fluorescence ratio, 500 uM ATP over buffer (Cy3 cluster intensity, sum of 5 cycles each) (fold (ratio)); higher = stronger signal-on switching upon ATP binding; sequences stand for … in TCGTCGGCAGCGTCAGATGTGTATAAGAGACAGTTTTTTTTTTTTTTTTTTTTTTTTT…TC
Settings: aptamer strand: ATP DNA aptamer (quencher-CACCTGGGGGAGTATTGCGGAGGAAGG + anchor), 100 nM annealed; ATP concentration: 500 uM
Procedure, shortened: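 Clusters carrying Cy3-labelled switching strands on a modified Illumina MiSeq flow-cell were annealed to 100 nM quencher-labelled ATP aptamer and imaged in selection buffer. They were imaged again after 15 min with 500 uM ATP at 22 °C, over five buffer/ATP cycles with NaOH stripping and re-annealing in between. For each cluster, the fluorescence ratio is the summed Cy3 intensity of the target cycles divided by that of the buffer cycles, averaged per switch-domain sequence. Clusters outside 100-1000 RFU were left out.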
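Note: ATP exposure 15 min at 22 °C before imaging.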

Sequence	switch fluorescence ratio
GCGTGCTGAA	1.04 ± 0.043
GCGTGGAGGG	1.013 ± 0.0029
GCGTGGGGGA	1 ± 0.039
GCGTGGGGGC	1.02 ± 0.019
GCGTTACTTA	1.06 ± 0.018
GCGTTCGGGC	1 ± 0.029
GCGTTGGGGC	1 ± 0.054
GCGTTGTGAA	0.9835 ± 0.0057
GCGTTGTGGC	1.01 ± 0.05
GCGTTGTTGT	0.981 ± 0.02
GCGTTTAGTA	0.992 ± 0.03
GCGTTTATAC	1.96 ± 0.56
GCGTTTGGGT	0.9955 ± 0.0041
GCGTTTGGTA	0.988 ± 0.04
GCGTTTTGAG	0.981 ± 0.025
GCGTTTTGCA	0.978 ± 0.015
GCGTTTTTCA	0.9801 ± 0.0094
GCTAAAAAGC	0.998 ± 0.033
GCTAAACGTG	0.959 ± 0.014
GCTAAAGGTC	1.05 ± 0.044
GCTAAATCGC	1.04 ± 0.034
GCTAAATGTT	0.988 ± 0.015
GCTAACCATT	1.1 ± 0.15
GCTAACGTGC	0.993 ± 0.046
GCTAAGCCTG	1.03 ± 0.017

Sequence	switch fluorescence ratio
GCTAATAGCC	1.059 ± 0.00084
GCTAATGGGA	0.994 ± 0.018
GCTAATTGCA	1.03 ± 0.057
GCTACAGCTA	1.01 ± 0.04
GCTACCTTTT	1.06 ± 0.069
GCTACTACTG	1.05 ± 0.022
GCTACTTTGC	1.037 ± 0.0045
GCTAGAAAGA	0.972 ± 0.0073
GCTAGAGGGG	1.02 ± 0.048
GCTAGAGTGC	0.979 ± 0.021
GCTAGATGCG	0.973 ± 0.03
GCTAGCGTTC	1 ± 0.013
GCTAGCTAAG	1.034 ± 0.0011
GCTAGGGGTG	1.07 ± 0.055
GCTAGGGTGG	0.994 ± 0.018
GCTAGGGTTT	0.965 ± 0.015
GCTAGTAAAA	1.02 ± 0.029
GCTAGTATG	0.9954 ± 0.0072
GCTAGTGGTG	1.04 ± 0.018
GCTAGTGTGG	1.03 ± 0.015
GCTAGTTGGG	0.9998 ± 0.0015
GCTATACAGC	1.03 ± 0.049
GCTATAGTAT	0.998 ± 0.0056
GCTATATTTT	0.982 ± 0.017
GCTATCACCA	1.31 ± 0.32

Sequence	switch fluorescence ratio
GCTATCCCTG	1.05 ± 0.018
GCTATCGAGT	1.01 ± 0.018
GCTATCGTGC	0.975 ± 0.013
GCTATCTTAT	0.9798 ± 0.008
GCTATGAAAG	0.995 ± 0.013
GCTATGAATG	1.01 ± 0.024
GCTATGAGAC	1.03 ± 0.055
GCTATGAGTA	0.9832 ± 0.0097
GCTATGTGGG	1.003 ± 0.0041
GCTATTAGTG	0.9892 ± 0.0051
GCTATTGGGT	0.95 ± 0.022
GCTATTTGGA	0.997 ± 0.012
GCTCAACAGA	1.022 ± 0.0057
GCTCAACGGT	0.9561 ± 0.0041
GCTCACACGG	1.62 ± 0.023
GCTCACCTAT	1.05 ± 0.048
GCTCAGGGGA	1.21 ± 0.097
GCTCATAAAA	1.001 ± 0.0065
GCTCATGAGC	1.007 ± 0.0093
GCTCCCTGAG	1.056 ± 0.0076
GCTCCTGAGG	1.073 ± 0.0081
GCTCCTGTGC	1.1992 ± 0.00049
GCTCGATGTG	1 ± 0.015
GCTCGGTCGG	1.02 ± 0.037
GCTCGTAAGT	1.01 ± 0.0049

Sequence	switch fluorescence ratio
GCTCTAATGC	1.17 ± 0.096
GCTCTAGTGT	0.996 ± 0.013
GCTCTATCAC	1.04 ± 0.035
GCTCTATTAT	1.11 ± 0.16
GCTCTCGGTA	1.03 ± 0.039
GCTCTGAGTG	1.013 ± 0.0075
GCTCTGTCGG	1.02 ± 0.012
GCTCTTAGTT	0.992 ± 0.018
GCTCTTTGGG	1.06 ± 0.13
GCTGAGGGTG	1.01 ± 0.028
GCTGATATCC	1.01 ± 0.048
GCTGATGTTT	1.023 ± 0.0095
GCTGATTGGA	0.979 ± 0.055
GCTGCATGTA	1.02 ± 0.028
GCTGCGCCGT	1.004 ± 0.0092
GCTGCGGGGA	0.9929 ± 0.0071
GCTGCGGGTC	1.02 ± 0.033
GCTGCTAAGG	0.987 ± 0.056
GCTGCTATTG	0.994 ± 0.02
GCTGCTTTTT	1.01 ± 0.041
GCTGGCAGTG	0.972 ± 0.029
GCTGGGAAGG	0.978 ± 0.013
GCTGGGAGGG	0.979 ± 0.022
GCTGGGATAG	1.01 ± 0.019
GCTGGGCACT	1.01 ± 0.035

Sequence	switch fluorescence ratio
GCTGGGGGCA	1.05 ± 0.098
GCTGGGGGTT	0.996 ± 0.059
GCTGGGGTCG	0.9631 ± 0.0029
GCTGGGGTTA	0.996 ± 0.019
GCTGGGGTTG	0.9839 ± 0.003
GCTGGGTTTC	0.996 ± 0.02
GCTGGGTTTG	0.9866 ± 0.0088
GCTGGTAGGG	1.01 ± 0.026
GCTGGTGGGG	0.964 ± 0.05
GCTGGTGGGT	0.988 ± 0.012
GCTGGTTTAG	1.006 ± 0.0039
GCTGGTTTTG	0.9716 ± 0.004
GCTGTAAAGC	1.03 ± 0.092
GCTGTAAGTA	0.988 ± 0.017
GCTGTACGAT	1.16 ± 0.012
GCTGTAGTTT	0.973 ± 0.015
GCTGTATATT	0.993 ± 0.0017
GCTGTCATTC	1.01 ± 0.014
GCTGTCGGTG	0.972 ± 0.0079
GCTGTCGTTA	1.015 ± 0.01
GCTGTGGCT	0.972 ± 0.01
GCTGTGGTAC	1.188 ± 0.0086
GCTGTGTCCA	0.993 ± 0.01
GCTGTGTGGG	1.03 ± 0.032
GCTGTTAGAG	1.02 ± 0.022

Sequence	switch fluorescence ratio
GCTGTTAGCA	1.02 ± 0.034
GCTGTTCATG	0.993 ± 0.015
GCTGTTGAAT	1.02 ± 0.041
GCTGTTGGAA	0.985 ± 0.012
GCTGTTGTTC	0.979 ± 0.041
GCTGTTTACG	1.03 ± 0.031
GCTGTTTACT	1 ± 0.012
GCTGTTTCCC	0.989 ± 0.024
GCTTAATCAG	0.988 ± 0.022
GCTTAATTAG	1.02 ± 0.017
GCTTACTGTG	1.01 ± 0.037
GCTTAGGGTG	1.01 ± 0.015
GCTTAGTGGG	0.954 ± 0.013
GCTTATAATT	0.991 ± 0.013
GCTTATCCTG	0.982 ± 0.041
GCTTATCGGT	0.996 ± 0.018
GCTTCAGAAA	1 ± 0.066
GCTTCAGGG	1 ± 0.019
GCTTCCCAGC	1.19 ± 0.032
GCTTCGGGCC	0.991 ± 0.015
GCTTCTATGC	1.02 ± 0.037
GCTTGAAGGG	1.01 ± 0.027
GCTTGAAGTT	0.991 ± 0.068
GCTTGAATTT	0.984 ± 0.02
GCTTGAGTAC	0.992 ± 0.037

Sequence	switch fluorescence ratio
GCTTGATACG	1.06 ± 0.099
GCTTGCATGC	1.04 ± 0.022
GCTTGCGGGG	0.9774 ± 0.0015
GCTTGGAGAG	0.99 ± 0.013
GCTTGGCAGT	1.03 ± 0.018
GCTTGGCTCG	1.01 ± 0.027
GCTTGGCTTG	1.02 ± 0.025
GCTTGGTGCA	0.997 ± 0.031
GCTTGGTGTC	1.05 ± 0.014
GCTTGTACGG	1.01 ± 0.039
GCTTGTTTGA	1.01 ± 0.014
GCTTTACCAG	0.989 ± 0.013
GCTTTAGTGG	0.963 ± 0.012
GCTTTCAGGG	1.01 ± 0.025
GCTTTGGGAA	1.03 ± 0.04
GCTTTTGCAC	1.028 ± 0.0078
GCTTTTGGCG	1.02 ± 0.021
GCTTTTGGTA	1.002 ± 0.0095
GCTTTTGTGG	0.986 ± 0.035
GCTTTTTGGC	1.03 ± 0.063
GCTTTTTTGG	0.994 ± 0.025
GGAAAAACGT	0.998 ± 0.015
GGAAAAAGGA	0.9423 ± 0.0081
GGAAAAAGGT	1.05 ± 0.14
GGAAAATTTA	0.963 ± 0.059

Sequence	switch fluorescence ratio
GGAAACGGGT	1.02 ± 0.014
GGAAACTCGG	0.986 ± 0.029
GGAAACTTTT	1.07 ± 0.098
GGAAAGGTCG	1.04 ± 0.039
GGAAATCGGG	0.989 ± 0.027
GGAAATGGTG	1.1 ± 0.11
GGAAATGTTG	0.991 ± 0.041
GGAACGCAGG	0.9981 ± 0.0022
GGAACGGGGT	1.01 ± 0.048
GGAAGATACG	1.03 ± 0.015
GGAAGATGTG	1.02 ± 0.016
GGAAGCTTAA	1.048 ± 0.0032
GGAAGGATTC	0.999 ± 0.013
GGAAGGGAAC	0.988 ± 0.033
GGAAGGGCGA	0.9569 ± 0.0068
GGAAGGGGTG	1.01 ± 0.035
GGAAGGGGTT	1.03 ± 0.089
GGAAGGTAAT	1 ± 0.048
GGAAGGTGGT	0.987 ± 0.024
GGAAGTTGGG	0.98 ± 0.023
GGAAGTTTTT	0.9946 ± 0.0079
GGAATAAGGG	0.995 ± 0.015
GGAATACGAT	1.09 ± 0.16
GGAATAGCGG	0.993 ± 0.029
GGAATATATA	0.951 ± 0.013
